Reference: patent publication US6001988, “High affinity nucleic acid ligands to lectins” (NeXstar Pharmaceuticals, Inc.)

B1: 6.3 (ssRNA)
RNA: GGGAAAAGCGAAUCAUACACAAGAGAUACAGCGCGGGUCUAAAGACCUUGCCCCUAGGAUGCAACGGGGUGGCUCCGCCAGAGACCAACCGAGAA
modifications: 2'-NH2 all C and U
B2: 11.29 (ssRNA)
RNA: GGGAAAAGCGAAUCAUACACAAGAACUGAGUAAGGUCUGGCGUGGCAUUAGGUUAGUGGGAGGCUUGGAGUAGGCUCCGCCAGAGACCAACCGAGAA
modifications: 2'-NH2 all C and U
B3: 11.2 (ssRNA)
RNA: GGGAAAAGCGAAUCAUACACAAGACCAACGUACAUCGCGAGCUGGUGGAGAGUUCAUGAGGGUGUUACGGGGUGCUCCGCCAGAGACCAACCGAGAA
modifications: 2'-NH2 all C and U
B4: 6.19 (ssRNA)
RNA: GGGAAAAGCGAAUCAUACACAAGAAUCGAACCUAGGGAUGCAACGGUGAAGGUUGUGAGGAUUCGCCAUUAGGCGCUCCGCCAGAGACCAACCGAGAA
modifications: 2'-NH2 all C and U
B5: 6.27 (ssRNA)
RNA: GGGAAAAGCGAAUCAUACACAAGAUGCCGGUGGAAAGGCGGGUAGGUGACCCGAGGAUUCCUACCAAGCCAUGCUCCGCCAGAGACCAACCGAGAA
modifications: 2'-NH2 all C and U
B6: 6.5 (ssRNA)
RNA: GGGAAAAGCGAAUCAUACACAAGAGUCCCUAGGGAUGCAACGGGCAGCAUUCGCAUAGGAGUAAUCGGAGGUCGCUCCGCCAGAGACCAACCGAGAA
modifications: 2'-NH2 all C and U
B7: 11.34 (ssRNA)
RNA: GGGAAAAGCGAAUCAUACACAAGACUCGGCGGGAACGUGAAGUGGGUAGGUAGCUGAAGACGGUCUGGGCGCCAGCUCCGCCAGAGACCAACCGAGAA
modifications: 2'-NH2 all C and U
B8: 6.9 (ssRNA)
RNA: GGGAAAAGCGAAUCAUACACAAGACUCGGCGGGAACGAAGUGUGUGAGUAACGAUCACUUGGUACUAAAAGCCCGCUCCGCCAGAGACCAACCGAGAA
modifications: 2'-NH2 all C and U
B9: 11.6 (ssRNA)
RNA: GGGAAAAGCGAAUCAUACACAAGACUGGGGAGCAGGAUAUGAGAUGUGCGGGGCAAUGGAGUCGUGACGAACCGCUCCGCCAGAGACCAACCGAGAA
modifications: 2'-NH2 all C and U
B10: 6.23 (ssRNA)
RNA: GGGAAAAGCGAAUCAUACACAAGACUCGGCGGGAAUCGAAAGUGUACUGAAUUAGAACGGUGGGCCUGCUCAUCGUGCUCCGCCAGAGACCAACCGAGAA
modifications: 2'-NH2 all C and U
B11: 11.5 (ssRNA)
RNA: GGGAAAAGCGAAUCAUACACAAGAACAAGGAUCGAUGGCGAGCCGGGGAGGGCUCGGCGGGAACGAAAUCUGCUCCGCCAGAGACCAACCGAGAA
modifications: 2'-NH2 all C and U
B12: 11.8 (ssRNA)
RNA: GGGAAAAGCGAAUCAUACACAAGAAUGGUUGGCCUGGGCGCAGGCUUCGAAGACUCGGCGGGAACGGGAAUGGCUCCGCCAGAGACCAACCGAGAA
modifications: 2'-NH2 all C and U
B13: 11.4 (ssRNA)
RNA: GGGAAAAGCGAAUCAUACACAAGACAGGCACUGAAAACUCGGCGGGAACGAAAGUAGUGCCGACUCAGACGCGUGCUCCGCCAGAGACCAACCGAGAA
modifications: 2'-NH2 all C and U
B14: 11.15 (ssRNA)
RNA: GGGAAAAGCGAAUCAUACACAAGACUCGGCGGGAACGAAAGUGUCAUGGUAGCAAGUCCAAUGGUGGACUCUGCUCCGCCAGAGACCAACCGAGAA
modifications: 2'-NH2 all C and U
B15: 11.27 (ssRNA)
RNA: GGGAAAAGCGAAUCAUACACAAGACGAUGCGAGGCAAGAAAUGGAGUCGUUACGAACCCUCUUGCAGUGCGCGGCUCCGCCAGAGACCAACCGAGAA
modifications: 2'-NH2 all C and U
B16: 11.26 (ssRNA)
RNA: GGGAAAAGCGAAUCAUACACAAGAUUGGGCAGGCAGAGCGAGACCGGGGGCUCGGCGGGAACGGAACAGGAAUGCUCCGCCAGAGACCAACCGAGAA
modifications: 2'-NH2 all C and U
B17: 11.32 (ssRNA)
RNA: GGGAAAAGCGAAUCAUACACAAGACGUGCGGAGCAAAUAGGGGAUCAUGGAGUCGUACGAACCGUUAUCGCGCUCCGCCAGAGACCAACCGAGAA
modifications: 2'-NH2 all C and U
B18: 11.12 (ssRNA)
RNA: GGGAAAAGCGAAUCAUACACAAGACGGCUGUGUGUGGUAGCGUCAUAGUAGGAGUCGUCACGAACCAAGGCGCUCCGCCAGAGACCAACCGAGAA
modifications: 2'-NH2 all C and U
B19: 11.19 (ssRNA)
RNA: GGGAAAAGCGAAUCAUACACAAGAAAGGGAUGGGAUUGGGACGAGCGGCCAAGACUCGGCGGGAACGAAGGGUGCUCCGCCAGAGACCAACCGAGAA
modifications: 2'-NH2 all C and U
B20: 11.28 (ssRNA)
RNA: GGGAAAAGCGAAUCAUACACAAGAGUUGGUGCGAGCUGGGGCGGCGAGAAGGUAGGCGGUCCGAGUGUUCGAAUGCUCCGCCAGAGACCAACCGAGAA
modifications: 2'-NH2 all C and U
B21: 233 (ssDNA)
DNA: CTACCTACGATCTGACTAGCCACGACAGAGAACAAGGCGTTAGACGTTATCCGACCACGGCTTACTCTCATGTAGTTCC

Biological target: T1, wheat germ agglutinin (WGA) (Triticum vulgare, UniProt P10968 P10968:27-197)
T1 sequence: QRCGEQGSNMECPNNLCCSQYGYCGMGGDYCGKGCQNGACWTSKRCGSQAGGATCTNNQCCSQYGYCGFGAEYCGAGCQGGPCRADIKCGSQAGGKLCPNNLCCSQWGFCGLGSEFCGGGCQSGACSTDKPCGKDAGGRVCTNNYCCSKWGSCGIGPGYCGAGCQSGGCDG
Test: filter; HBSS, room temp
Details: tags: free lectin, E Y Laboratories; label: 32P
Method: (§1) The specifically eluted fraction was processed for use in the following round. Fractions eluted from immobilized WGA were heated at 90° C. for 5 minutes in 1% SDS, 2% β-mercaptoethanol and extracted with phenol/chloroform. RNA was reverse transcribed into cDNA by AMV reverse transcriptase at 48° C. for 60 min in 50 mM Tris-Cl pH (8.3), 60 mM NaCl, 6 mM Mg(OAc)_2, 10 mM DTT, 100 pmol DNA primer, 0.4 mM each of dNTPs, and 0.4 unit/µl AMV RT. […] C) Nitrocellulose Filter Partitioning As described in SELEX Patent Applications, the nitrocellulose filter partitioning method was used to determine the affinity of RNA ligands for WGA and for other proteins. Filter discs (nitrocellulose/cellulose acetate mixed matrix, 0.45 µm pore size, Millipore; or pure nitrocellulose, 0.45 µm pore size, Bio-Rad) were placed on a vacuum manifold and washed with 4 ml of HBSS buffer under vacuum. Reaction mixtures, containing ^32P labeled RNA pools and unlabeled WGA, were incubated in HBSS for 10 min at room temperature, filtered, and then immediately washed with 4 ml HBSS. The filters were air-dried and counted in a Beckman LS6500 liquid scintillation counter without fluor. WGA is a homodimer, molecular weight 43.2 kD, with 4 GlcNAc binding sites per dimer. For affinity calculations, we assume one RNA ligand binding site per monomer (two per dimer). The monomer concentration is defined as 2 times the dimer concentration. The equilibrium dissociation constant, K_d, for an RNA pool or specific ligand that binds monophasically is given by the equation $$K_d=[P_f][R_f]/[RP]$$
The dissociation constants for representative members of families 1–9 and orphan ligands were determined by nitrocellulose filter binding experiments and are listed in Table III. These calculations assume one RNA ligand binding site per WGA monomer.

Question: B1 was tested. Which Kd did it give?
Answer: The Kd was 120 nM.

Question: Which Kd does the source give for B2 here?
Answer: Its Kd is 32 nM.

Question: For B3, which Kd is on record?
Answer: The Kd was 62 nM.

Question: With B4 as the binder, how does the Kd read?
Answer: Its Kd is 74 nM.

Question: Which Kd does the source give for B5 here?
Answer: Its Kd is 56 nM.

Question: With B6 as the binder, how does the Kd read?
Answer: The Kd was 678 nM.

Same assay, conditions: tags: free lectin, E Y Laboratories; label: 32P; hairpin

Question: Which Kd does the source give for B7 here?
Answer: The Kd was 92 nM.

Question: How did the Kd turn out when B8 was run?
Answer: The Kd was 396 nM.

Question: Which Kd does the source give for B9 here?
Answer: The Kd was 702 nM.

Question: B10 was tested. Which Kd did it give?
Answer: Its Kd is 824 nM.

Question: With B11 as the binder, how does the Kd read?
Answer: The Kd was 44 nM.

Question: Which Kd does the source give for B12 here?
Answer: Its Kd is 9.2 nM.

Question: Which Kd does the source give for B13 here?
Answer: The Kd was 32 nM.

Question: Which Kd does the source give for B14 here?
Answer: Its Kd is 54 nM.

Question: Which Kd does the source give for B15 here?
Answer: The Kd was 30 nM.

Question: For B16, which Kd is on record?
Answer: Its Kd is 38 nM.

Question: B17 was tested. Which Kd did it give?
Answer: Its Kd is 274 nM.

Question: B18 was tested. Which Kd did it give?
Answer: The Kd was 15.2 nM.

Question: How did the Kd turn out when B19 was run?
Answer: Its Kd is 22 nM.

Same assay, conditions: tags: free lectin, E Y Laboratories; label: 32P; possible G-quartet (speculative)

Question: How did the Kd turn out when B20 was run?
Answer: The Kd was 9.2 nM.

Biological target: T2, P-selectin (PS-Rg) (Homo sapiens, UniProt P16109 P16109:42-321)
T2 chain: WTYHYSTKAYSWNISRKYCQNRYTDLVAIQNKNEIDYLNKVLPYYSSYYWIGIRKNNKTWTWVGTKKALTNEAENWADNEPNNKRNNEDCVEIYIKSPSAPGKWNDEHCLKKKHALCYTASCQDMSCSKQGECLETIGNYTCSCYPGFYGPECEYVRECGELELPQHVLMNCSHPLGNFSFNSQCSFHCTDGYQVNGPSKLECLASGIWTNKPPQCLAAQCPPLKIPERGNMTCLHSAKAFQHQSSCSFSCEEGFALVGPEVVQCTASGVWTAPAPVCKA
Test: filter; room temp, Ca/Mg buffer
Details: tags: lectin, EGF and first two CRD domains fused to human IgG1 Fc (provided by A. Varki); chain copies: 2 (dimeric Fc chimera, inferred)
Method: as §1, with “RNA” for “The specifically eluted fraction was processed for use in the following round. Fractions eluted from immobilized WGA were heated at 90° C. for 5 minutes in 1% SDS, 2% β-mercaptoethanol and extracted with phenol/chloroform. RNA”
(§2) The affinity of representative cloned ligands for LS-Rg, ES-Rg, PS-Rg, CD22β-Rg and WGA was determined by nitrocellulose partitioning and the results shown in Table XIV. The ligands are highly specific for L-selectin.
(§3) *Kds were determined at room temperature.

Question: Which Kd does the source give for B21 here?
Answer: The Kd was 420 nM.

Biological target: T3, E-selectin (ES-Rg) (Homo sapiens, UniProt P16581 P16581:22-556)
T3 chain: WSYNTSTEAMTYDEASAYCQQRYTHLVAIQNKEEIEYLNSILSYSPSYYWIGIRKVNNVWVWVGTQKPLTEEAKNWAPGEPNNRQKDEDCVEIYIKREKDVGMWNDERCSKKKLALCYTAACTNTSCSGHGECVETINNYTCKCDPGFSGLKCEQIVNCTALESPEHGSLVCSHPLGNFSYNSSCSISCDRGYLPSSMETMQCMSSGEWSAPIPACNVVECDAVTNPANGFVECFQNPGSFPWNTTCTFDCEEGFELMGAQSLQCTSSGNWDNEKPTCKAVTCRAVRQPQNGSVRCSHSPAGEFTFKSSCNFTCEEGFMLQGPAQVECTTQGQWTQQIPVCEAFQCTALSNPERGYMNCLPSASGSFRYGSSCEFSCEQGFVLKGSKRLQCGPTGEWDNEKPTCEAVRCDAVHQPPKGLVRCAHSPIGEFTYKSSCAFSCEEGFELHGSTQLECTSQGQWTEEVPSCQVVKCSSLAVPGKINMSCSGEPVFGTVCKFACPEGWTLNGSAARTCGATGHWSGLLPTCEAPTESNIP
Test: filter; room temp, Ca/Mg buffer
Details: tags: extracellular domain fused to human IgG1 Fc (provided by A. Varki); chain copies: 2 (dimeric Fc chimera, inferred)
Method: as §1, with “RNA” for “The specifically eluted fraction was processed for use in the following round. Fractions eluted from immobilized WGA were heated at 90° C. for 5 minutes in 1% SDS, 2% β-mercaptoethanol and extracted with phenol/chloroform. RNA”
as §2, §3

Question: How did the Kd turn out when B21 was run?
Answer: Its Kd is 39 nM.
